The values below come from patent publication US20100330158A1, “PROTEIN-ASSISTED DRUG DELIVERY SYSTEM FOR THE TARGETED ADMINISTRATION OF ACTIVE AGENTS” (InnoPharma, LLC, priority 2009, published 2010).

For this test, the system named is bovine brain microvascular endothelial cells (BBMVECs). Description: Flow cytometry binding of FITC-labeled proteins to BBMVECs. The conditions noted are these: for shift in fluorescence: FITC-labeled protein incubated with BBMVECs at 4° C. (on ice) for 15 minutes; for % of the cells that bind (strongly) to the protein: BBMVECs, 15 minutes. How it is done: The three E. coli recombinant proteins (SfaS, SfaA, OmpA) produced in Example 1 are labeled with fluorescein isothiocyanate (FITC) to allow fluorescent detection of proteins. The proteins are labeled using the Thermo-Fisher Pierce FITC labeling kit (Thermo Fisher Scientific Inc., Waltham, Mass.) according to the manufacturer's protocol. The amounts of protein used for the labeling reaction are 0.75 mg (SfaS), 0.8 mg (OmpA) and 1.25 mg (SfaA).
Flow cytometry is performed by incubating the labeled proteins with BBMVECs. These cells are procured from Cell Applications, Inc (San Diego, Calif.). Cells are mixed with FITC proteins (individually) and incubated on ice or at 37° C. for 15 minutes, then washed, and sorted with flow cytometry.

B1: SfaS: Recombinant His-tagged S fimbriae protein sfaS variant from E. coli CFT073, SEQ ID NO: 2 (protein)
chain: MASMTGGQQMGRGSMVDTTITVTGRVLPRTCTIGNGGNPNATVVLDNAYTSDLIAANSTSQWKNFSLTLTNCQNVNNVTATFGGTAENTNYYRNTGDATNIMVELQEQGNGNTPLKVGSTKVVTVSNGQATFNLKVRAVSKGNAGAGSINSQITVTYTYALEHHHHHH
modifications: His tag; E. coli
B1: the shift in fluorescence result was “less significant shift”.

B2: SfaA: Recombinant His-tagged S fimbriae protein sfaA variant from E. coli CFT073, SEQ ID NO: 4 (protein)
chain: MKYLLPTAAAGLLLLAAQPAMAMDIGINGTGSMGTVHFKGEVVNAACAVNTNSFDQTVNLGQVRSERLKVDGAKSNPVGFTIELNDCDSQVSAGAGIVFSGPAVTGKTDVLALQSSAAGSATNVGVQTDHTGKVVPLDGTASSTFTLTDGTNKIPFQAVYYATGQATAGIANADATFKVQYQLEHHHHHH
modifications: His tag; E. coli
Turning to B2, the shift in fluorescence result was “significant shift”. Further, the “% of the cells that bind (strongly) to the protein” value (4° C. (on ice)) is ~37%. For the same molecule, where the note is “37° C.”, the “% of the cells that bind (strongly) to the protein” value was ~10%.
